Target: thrombin (UniProt P00734;P00734 328-363;364-622)
Assay: competition

B1: thrombin aptamer (TA) (structured_DNA)
DNA: GGTTGGTGTGGTTGGTTT
  binding result: binds

— PMC4204924
